From PMC12903857 (Journal of the American Chemical Society, 2026)
Non-standard residues stand in square brackets, D forms with d. No end group written: not given here. pS = N[C@@H](COP(=O)(O)O)C(=O)O

T1: 14-3-3σ (UniProt P31947 1-248)
T1 construct: 14-3-3σ (sigma isoform of 14-3-3, SFN), the protein titrated in the fluorescence anisotropy assays; With the covalent compounds of the FA assays C38 becomes modified in the sample; also called sigma isoform
T1 sequence (looked up): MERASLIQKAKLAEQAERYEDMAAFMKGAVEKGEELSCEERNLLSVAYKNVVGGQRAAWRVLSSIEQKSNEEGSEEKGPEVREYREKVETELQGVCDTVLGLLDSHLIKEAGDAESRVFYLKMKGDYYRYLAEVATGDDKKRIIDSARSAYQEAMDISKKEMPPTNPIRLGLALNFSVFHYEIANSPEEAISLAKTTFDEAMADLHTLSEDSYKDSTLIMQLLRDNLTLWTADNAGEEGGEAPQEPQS


Legend:
[1] = target: T1, 14-3-3σ; experiment: fluorescence polarisation; fluorescence anisotropy protein titration: 14-3-3σ titrated into 10 nM labeled peptide in the presence of DMSO; apparent; conditions: both partners purified
[2] = target: T2, C-RAF-NanoLuciferase (Nluc) (UniProt P04049 1-648); experiment: FRET or BRET; NanoBRET in HEK293T cells: RAF tagged with NanoLuciferase, 14-3-3σ with HaloTag/fluorescent HaloTag ligand; dose responses of compounds against DMSO; conditions: partners not purified
T2 construct: C-RAF, full-length RAF client of the cell assays; source: HEK293T, transfected, in cells

[3] = target: T3, A-RAF (NanoBRET fusion) (UniProt P10398 1-606); experiment: as above; conditions: partners not purified
T3 construct: A-RAF, full-length RAF client of the cell assays; Used in the 14-3-3σ/A-RAF and the A-RAF/C-RAF NanoBRET assays; the fusion partner may differ between them; The cell line is told for the first NanoBRET assays only; source: HEK293T, transfected, in cells; not shown: NanoLuciferase or HaloTag (from the NanoBRET method)

[4] = target: T4, B-RAF (NanoBRET fusion) (UniProt P15056 1-766); experiment: as above; conditions: partners not purified
T4 construct: B-RAF, full-length RAF client of the cell assays; Used in the 14-3-3σ/B-RAF and the B-RAF/C-RAF NanoBRET assays; the fusion partner may differ between them; The cell line is told for the first NanoBRET assays only; source: HEK293T, transfected, in cells; not shown: NanoLuciferase or HaloTag (from the NanoBRET method)
T4 sequence (P15056 whole entry, the tested form may be a part): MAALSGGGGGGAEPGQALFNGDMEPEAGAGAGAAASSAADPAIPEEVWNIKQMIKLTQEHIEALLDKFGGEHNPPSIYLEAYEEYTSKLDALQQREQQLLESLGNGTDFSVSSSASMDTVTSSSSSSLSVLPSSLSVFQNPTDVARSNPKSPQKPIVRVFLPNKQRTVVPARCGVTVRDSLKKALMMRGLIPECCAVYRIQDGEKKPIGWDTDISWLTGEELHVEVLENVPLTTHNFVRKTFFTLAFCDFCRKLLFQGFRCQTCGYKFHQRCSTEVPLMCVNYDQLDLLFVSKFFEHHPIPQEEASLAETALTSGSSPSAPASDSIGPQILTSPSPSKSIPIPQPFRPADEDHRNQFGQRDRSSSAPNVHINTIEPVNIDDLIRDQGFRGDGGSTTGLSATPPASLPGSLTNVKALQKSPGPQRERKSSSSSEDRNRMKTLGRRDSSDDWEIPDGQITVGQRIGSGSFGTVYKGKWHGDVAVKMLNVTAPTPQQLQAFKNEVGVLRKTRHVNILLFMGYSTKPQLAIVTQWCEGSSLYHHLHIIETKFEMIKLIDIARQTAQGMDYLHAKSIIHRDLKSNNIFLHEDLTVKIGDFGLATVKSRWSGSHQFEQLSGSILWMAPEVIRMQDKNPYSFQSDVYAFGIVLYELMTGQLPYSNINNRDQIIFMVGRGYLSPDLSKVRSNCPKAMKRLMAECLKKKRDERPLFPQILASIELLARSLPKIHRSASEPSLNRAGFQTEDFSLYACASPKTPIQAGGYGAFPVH

Kd [1] [µM] | fold stabilization (BRET signal) with 22 against DMSO [2] [fold] | fold stabilization (BRET signal) with 23 against DMSO [2] [fold] | fold stabilization (BRET signal) with 70 against DMSO [2] [fold] | fold stabilization (BRET signal) with 78 against DMSO [2] [fold] | fold increase (BRET signal) with 10 μM 22 [3] [fold] | fold increase (BRET signal) with 10 μM 23 [3] [fold] | fold increase (BRET signal) with 22 [4] [fold] | fold increase (BRET signal) with 23 [4] [fold] | Binder
8.43 |  |  |  |  |  |  |  |  | QRST[pS]TPNVH (also: FAM label, site not given here) [FAM-labeled C-RAF259 peptide (10-mer)]
 | 1.5 | 1.6 | 1.3 | 1.4 | 1.6 | 1.7 | 1.4 | 1.4 | 14-3-3σ-Halotag (HT) (natural protein, UniProt P31947 1-248, looked up, fluorescent HaloTag ligand on the HaloTag, 14-3-3σ, full length, for NanoBRET; also called full-length 14-3-3σ; source: HEK293T, transfected, in cells) MERASLIQKAKLAEQAERYEDMAAFMKGAVEKGEELSCEERNLLSVAYKNVVGGQRAAWRVLSSIEQKSNEEGSEEKGPEVREYREKVETELQGVCDTVLGLLDSHLIKEAGDAESRVFYLKMKGDYYRYLAEVATGDDKKRIIDSARSAYQEAMDISKKEMPPTNPIRLGLALNFSVFHYEIANSPEEAISLAKTTFDEAMADLHTLSEDSYKDSTLIMQLLRDNLTLWTADNAGEEGGEAPQEPQS
